Target: GMPCPP-stabilized, fluorescently labeled, biotinylated microtubules (untreated) (UniProt P02550)

wild-type full-length Cin8, GFP- and 6x His-tagged (from UniProt P27895 1-1000) (natural protein)
% of (+)-end movements, Clusters, 110 mM KCl: 41% | % of (+)-end movements, Monomers (single molecules), 110 mM KCl: 29% | % of total runs >60 s, Monomers (single molecules), 110 mM KCl: 17%

Reference: paper PMC10849588
